Usually Kd stands for the free concentration of one partner at which half of the binding sites on the other are occupied at equilibrium, for simple one-to-one binding.

In data set [1] the target is T1, Complement C1q (C1qA/C1qB/C1qC) (UniProt P02745;P02746;P02747 P02745:23-245,P02746:28-253,P02747:29-245). The experiment in a line: ELONA; estimated; C1q fixed at 0.625 nM. Conditions: chain copies: 6; label: radiolabel (filter); biotin (pulldown, ELONA). On the procedure: (§1) To further investigate the interaction of aptamer B1 and B11 with C1q, we performed a filter retention assay. Radioactively labelled B1 and B11 were incubated with increasing concentrations of purified C1q and subsequently passed through a nitrocellulose membrane. The amount of oligonucleotides retained on membrane-immobilized C1q was then quantified by autoradiography. […] Similar results were obtained with B11 and B11rc in an Enzyme-Linked Oligonucleotide Assay (ELONA; see U.S. Pat. No. 5,789,163, which patent is incorporated herein in its entirety). […] As a control, the reverse complement of B11, B11RC, was used (squares).

Data set [2] concerns the target T1, Complement C1q (C1qA/C1qB/C1qC). The data set is described as follows: FP filter; nitrocellulose filter retention; concentration dependent binding. Conditions: chain copies: 6; label: radiolabel (filter); biotin (pulldown). On the procedure:
as §1

T1 sequence (P02745 23-245, chain 1 of 3): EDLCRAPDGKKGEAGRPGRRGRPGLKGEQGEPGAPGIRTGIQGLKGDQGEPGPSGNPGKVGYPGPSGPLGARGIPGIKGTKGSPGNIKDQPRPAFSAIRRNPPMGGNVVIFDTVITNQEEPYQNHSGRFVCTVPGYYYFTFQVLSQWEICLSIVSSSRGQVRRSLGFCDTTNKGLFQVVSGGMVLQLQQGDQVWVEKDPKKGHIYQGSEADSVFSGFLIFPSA
T1 sequence (P02746 28-253, chain 2 of 3): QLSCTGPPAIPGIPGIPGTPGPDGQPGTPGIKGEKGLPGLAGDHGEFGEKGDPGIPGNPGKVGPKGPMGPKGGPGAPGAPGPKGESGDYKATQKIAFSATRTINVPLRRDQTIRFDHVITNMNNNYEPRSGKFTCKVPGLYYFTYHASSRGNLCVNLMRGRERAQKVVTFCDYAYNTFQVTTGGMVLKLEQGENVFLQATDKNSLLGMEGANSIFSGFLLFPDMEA
T1 sequence (P02747 29-245, chain 3 of 3): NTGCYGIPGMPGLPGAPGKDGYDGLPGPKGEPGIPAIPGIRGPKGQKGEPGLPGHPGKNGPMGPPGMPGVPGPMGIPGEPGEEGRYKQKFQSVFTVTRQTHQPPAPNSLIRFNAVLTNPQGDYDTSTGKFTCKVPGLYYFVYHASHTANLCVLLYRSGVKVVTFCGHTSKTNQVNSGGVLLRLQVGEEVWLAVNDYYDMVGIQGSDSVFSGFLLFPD

B1: 83S-B11 full (ssDNA)
DNA: CTAGCATGACTGCAGTACGTAACCCAATTCACATACACTCTCACCCCCACTAAACACTGTCTCTTATACACATCTGACGCTGCCGACGA
Consider B1, for which the Kd in data set [1] is ~40 nM.

B2: 83S-B1 full (ssDNA)
DNA: CTAGCATGACTGCAGTACGTACTATAGAACAATCCACCGCTTTAAATCAACTATCTTACTGTCTCTTATACACATCTGACGCTGCCGACGA
Turning to B2, the binding result in data set [2] is recorded as “binds”.
